Assay results taken from patent US20200254116A1.
Non-standard residues stand in square brackets, D forms with d. No end group written: not given here. *: point of attachment. Phe(4-I) = N[C@@H](Cc1ccc(I)cc1)C(=O)O; Fmoc = O=C(OCC1c2ccccc2-c2ccccc21)*

Substrate: FBS (fetal bovine serum) proteins
Test: FBS protein binding assay: 25 uM agent in 100% FBS, Amicon 10 K cutoff ultrafiltration, fluorescence of fractions

## Fmoc-[Phe(4-I)]LPNSNHIK(IRDye800)QGL [4Iphf-HN18-IR800]
  percent bound: 70%

## TSPLNIHNGQK(IRDye800)L [HN1-IR800]
  percent bound: 52%
